# Assay results reported in patent US20140087995A1 (published 2014).
# Numbered stars: 1 amine (or outer) side, 2 acyl side, 3 side chain; on linkers, the order of the positions; unused ones are H or OH. Bridge positions count the residues as written; N and C are the ends. Side chains are listed from the residue outwards. Ends that are not written are not given here. * marks the point of attachment. C20 diacid = O=C(O)CCCCCCCCCCCCCCCCCCC(=O)*; C18 diacid = O=C(O)CCCCCCCCCCCCCCCCC(=O)*; C16 diacid = O=C(O)CCCCCCCCCCCCCCC(=O)*; γGlu = O=C(O)[C@H](CCC(=O)[*:2])N[*:1]
# T1: human amylin 3(a) receptor (human calcitonin receptor co-expressed with RAMP-3) (human, UniProt P30988 25-474; O60896 24-148, limits assumed)
# T1 sequence (looked up) 1: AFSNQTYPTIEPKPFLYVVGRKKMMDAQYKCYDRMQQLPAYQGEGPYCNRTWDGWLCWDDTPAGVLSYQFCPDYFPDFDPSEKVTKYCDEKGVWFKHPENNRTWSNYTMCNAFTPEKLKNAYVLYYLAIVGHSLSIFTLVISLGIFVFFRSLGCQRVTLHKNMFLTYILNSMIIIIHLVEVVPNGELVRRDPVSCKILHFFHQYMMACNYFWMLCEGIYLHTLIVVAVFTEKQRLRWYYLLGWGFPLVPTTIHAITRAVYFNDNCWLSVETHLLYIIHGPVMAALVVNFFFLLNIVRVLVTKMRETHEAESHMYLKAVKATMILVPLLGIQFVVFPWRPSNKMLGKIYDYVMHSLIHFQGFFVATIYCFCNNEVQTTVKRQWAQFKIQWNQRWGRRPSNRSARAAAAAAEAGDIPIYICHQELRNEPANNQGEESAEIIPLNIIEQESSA
# T1 sequence (looked up) 2: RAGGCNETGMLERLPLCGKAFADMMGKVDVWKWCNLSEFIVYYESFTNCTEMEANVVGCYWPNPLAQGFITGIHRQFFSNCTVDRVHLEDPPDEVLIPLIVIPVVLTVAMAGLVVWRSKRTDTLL
# T2: human calcitonin receptor (human, UniProt P30988 25-474)
# T2 sequence (looked up): T1 sequence (looked up) 1
# B1: N^ε1-[(4S)-4-carboxy-4-(15-carboxypentadecanoylamino)butanoyl]-[Arg17,Pro21,Pro27,His34]-h-amylin (peptide)
# peptide: K([γGlu-C16 diacid])CNTATCATQRLANFLRHSSPNFGAIPSSTNVGHNTY-NH2
# modifications: disulfide 2-7; N-terminus assumed
# SMILES: CC[C@H](C)[C@H](NC(=O)[C@H](C)NC(=O)CNC(=O)[C@H](Cc1ccccc1)NC(=O)[C@H](CC(N)=O)NC(=O)[C@@H]1CCCN1C(=O)[C@H](CO)NC(=O)[C@H](CO)NC(=O)[C@H](Cc1c[nH]cn1)NC(=O)[C@H](CCCNC(=N)N)NC(=O)[C@H](CC(C)C)NC(=O)[C@H](Cc1ccccc1)NC(=O)[C@H](CC(N)=O)NC(=O)[C@H](C)NC(=O)[C@H](CC(C)C)NC(=O)[C@H](CCCNC(=N)N)NC(=O)[C@H](CCC(N)=O)NC(=O)[C@@H](NC(=O)[C@H](C)NC(=O)[C@@H]1CSSC[C@H](NC(=O)[C@@H](N)CCCCNC(=O)CC[C@H](NC(=O)CCCCCCCCCCCCCCC(=O)O)C(=O)O)C(=O)N[C@@H](CC(N)=O)C(=O)N[C@@H]([C@@H](C)O)C(=O)N[C@@H](C)C(=O)N[C@@H]([C@@H](C)O)C(=O)N1)[C@@H](C)O)C(=O)N1CCC[C@H]1C(=O)N[C@@H](CO)C(=O)N[C@@H](CO)C(=O)N[C@H](C(=O)N[C@@H](CC(N)=O)C(=O)N[C@H](C(=O)NCC(=O)N[C@@H](Cc1c[nH]cn1)C(=O)N[C@@H](CC(N)=O)C(=O)N[C@H](C(=O)N[C@@H](Cc1ccc(O)cc1)C(N)=O)[C@@H](C)O)C(C)C)[C@@H](C)O
# B2: N^ε1-[(4S)-4-carboxy-4-(19-carboxynonadecanoylamino)butanoyl]-[Ala14,Arg17,Pro21,Pro27,His34]-h-amylin (peptide)
# peptide: K([γGlu-C20 diacid])CNTATCATQRLAAFLRHSSPNFGAIPSSTNVGHNTY-NH2
# modifications: disulfide 2-7; N-terminus assumed
# SMILES: CC[C@H](C)[C@H](NC(=O)[C@H](C)NC(=O)CNC(=O)[C@H](Cc1ccccc1)NC(=O)[C@H](CC(N)=O)NC(=O)[C@@H]1CCCN1C(=O)[C@H](CO)NC(=O)[C@H](CO)NC(=O)[C@H](Cc1c[nH]cn1)NC(=O)[C@H](CCCNC(=N)N)NC(=O)[C@H](CC(C)C)NC(=O)[C@H](Cc1ccccc1)NC(=O)[C@H](C)NC(=O)[C@H](C)NC(=O)[C@H](CC(C)C)NC(=O)[C@H](CCCNC(=N)N)NC(=O)[C@H](CCC(N)=O)NC(=O)[C@@H](NC(=O)[C@H](C)NC(=O)[C@@H]1CSSC[C@H](NC(=O)[C@@H](N)CCCCNC(=O)CC[C@H](NC(=O)CCCCCCCCCCCCCCCCCCC(=O)O)C(=O)O)C(=O)N[C@@H](CC(N)=O)C(=O)N[C@@H]([C@@H](C)O)C(=O)N[C@@H](C)C(=O)N[C@@H]([C@@H](C)O)C(=O)N1)[C@@H](C)O)C(=O)N1CCC[C@H]1C(=O)N[C@@H](CO)C(=O)N[C@@H](CO)C(=O)N[C@H](C(=O)N[C@@H](CC(N)=O)C(=O)N[C@H](C(=O)NCC(=O)N[C@@H](Cc1c[nH]cn1)C(=O)N[C@@H](CC(N)=O)C(=O)N[C@H](C(=O)N[C@@H](Cc1ccc(O)cc1)C(N)=O)[C@@H](C)O)C(C)C)[C@@H](C)O
# notes: also called compound 93
# B3: N^ε1-[(4S)-4-carboxy-4-(17-carboxyheptadecanoylamino)butanoyl]-[Arg17,Pro21,Pro27,His34]-h-amylin (peptide)
# peptide: K([γGlu-C18 diacid])CNTATCATQRLANFLRHSSPNFGAIPSSTNVGHNTY-NH2
# modifications: disulfide 2-7; N-terminus assumed
# SMILES: CC[C@H](C)[C@H](NC(=O)[C@H](C)NC(=O)CNC(=O)[C@H](Cc1ccccc1)NC(=O)[C@H](CC(N)=O)NC(=O)[C@@H]1CCCN1C(=O)[C@H](CO)NC(=O)[C@H](CO)NC(=O)[C@H](Cc1c[nH]cn1)NC(=O)[C@H](CCCNC(=N)N)NC(=O)[C@H](CC(C)C)NC(=O)[C@H](Cc1ccccc1)NC(=O)[C@H](CC(N)=O)NC(=O)[C@H](C)NC(=O)[C@H](CC(C)C)NC(=O)[C@H](CCCNC(=N)N)NC(=O)[C@H](CCC(N)=O)NC(=O)[C@@H](NC(=O)[C@H](C)NC(=O)[C@@H]1CSSC[C@H](NC(=O)[C@@H](N)CCCCNC(=O)CC[C@H](NC(=O)CCCCCCCCCCCCCCCCC(=O)O)C(=O)O)C(=O)N[C@@H](CC(N)=O)C(=O)N[C@@H]([C@@H](C)O)C(=O)N[C@@H](C)C(=O)N[C@@H]([C@@H](C)O)C(=O)N1)[C@@H](C)O)C(=O)N1CCC[C@H]1C(=O)N[C@@H](CO)C(=O)N[C@@H](CO)C(=O)N[C@H](C(=O)N[C@@H](CC(N)=O)C(=O)N[C@H](C(=O)NCC(=O)N[C@@H](Cc1c[nH]cn1)C(=O)N[C@@H](CC(N)=O)C(=O)N[C@H](C(=O)N[C@@H](Cc1ccc(O)cc1)C(N)=O)[C@@H](C)O)C(C)C)[C@@H](C)O
# B4: N^ε1-[(4S)-4-carboxy-4-(19-carboxynonadecanoylamino)butanoyl]-[Ala14,Arg17,Pro21,Pro27,Pro34]-h-amylin (peptide)
# peptide: K([γGlu-C20 diacid])CNTATCATQRLAAFLRHSSPNFGAIPSSTNVGPNTY-NH2
# modifications: disulfide 2-7; N-terminus assumed
# SMILES: CC[C@H](C)[C@H](NC(=O)[C@H](C)NC(=O)CNC(=O)[C@H](Cc1ccccc1)NC(=O)[C@H](CC(N)=O)NC(=O)[C@@H]1CCCN1C(=O)[C@H](CO)NC(=O)[C@H](CO)NC(=O)[C@H](Cc1c[nH]cn1)NC(=O)[C@H](CCCNC(=N)N)NC(=O)[C@H](CC(C)C)NC(=O)[C@H](Cc1ccccc1)NC(=O)[C@H](C)NC(=O)[C@H](C)NC(=O)[C@H](CC(C)C)NC(=O)[C@H](CCCNC(=N)N)NC(=O)[C@H](CCC(N)=O)NC(=O)[C@@H](NC(=O)[C@H](C)NC(=O)[C@@H]1CSSC[C@H](NC(=O)[C@@H](N)CCCCNC(=O)CC[C@H](NC(=O)CCCCCCCCCCCCCCCCCCC(=O)O)C(=O)O)C(=O)N[C@@H](CC(N)=O)C(=O)N[C@@H]([C@@H](C)O)C(=O)N[C@@H](C)C(=O)N[C@@H]([C@@H](C)O)C(=O)N1)[C@@H](C)O)C(=O)N1CCC[C@H]1C(=O)N[C@@H](CO)C(=O)N[C@@H](CO)C(=O)N[C@H](C(=O)N[C@@H](CC(N)=O)C(=O)N[C@H](C(=O)NCC(=O)N1CCC[C@H]1C(=O)N[C@@H](CC(N)=O)C(=O)N[C@H](C(=O)N[C@@H](Cc1ccc(O)cc1)C(N)=O)[C@@H](C)O)C(C)C)[C@@H](C)O
# notes: also called compound 94
# B5: N^ε1-[(4S)-4-carboxy-4-(19-carboxynonadecanoylamino)butanoyl]-[Arg14,Arg17,Pro21,Pro27]-h-amylin (peptide)
# peptide: K([γGlu-C20 diacid])CNTATCATQRLARFLRHSSPNFGAIPSSTNVGSNTY-NH2
# modifications: disulfide 2-7; N-terminus assumed
# SMILES: CC[C@H](C)[C@H](NC(=O)[C@H](C)NC(=O)CNC(=O)[C@H](Cc1ccccc1)NC(=O)[C@H](CC(N)=O)NC(=O)[C@@H]1CCCN1C(=O)[C@H](CO)NC(=O)[C@H](CO)NC(=O)[C@H](Cc1c[nH]cn1)NC(=O)[C@H](CCCNC(=N)N)NC(=O)[C@H](CC(C)C)NC(=O)[C@H](Cc1ccccc1)NC(=O)[C@H](CCCNC(=N)N)NC(=O)[C@H](C)NC(=O)[C@H](CC(C)C)NC(=O)[C@H](CCCNC(=N)N)NC(=O)[C@H](CCC(N)=O)NC(=O)[C@@H](NC(=O)[C@H](C)NC(=O)[C@@H]1CSSC[C@H](NC(=O)[C@@H](N)CCCCNC(=O)CC[C@H](NC(=O)CCCCCCCCCCCCCCCCCCC(=O)O)C(=O)O)C(=O)N[C@@H](CC(N)=O)C(=O)N[C@@H]([C@@H](C)O)C(=O)N[C@@H](C)C(=O)N[C@@H]([C@@H](C)O)C(=O)N1)[C@@H](C)O)C(=O)N1CCC[C@H]1C(=O)N[C@@H](CO)C(=O)N[C@@H](CO)C(=O)N[C@H](C(=O)N[C@@H](CC(N)=O)C(=O)N[C@H](C(=O)NCC(=O)N[C@@H](CO)C(=O)N[C@@H](CC(N)=O)C(=O)N[C@H](C(=O)N[C@@H](Cc1ccc(O)cc1)C(N)=O)[C@@H](C)O)C(C)C)[C@@H](C)O
# notes: also called compound 83
# Molecular target: T1, human amylin 3(a) receptor (human …)
# Test: cell-based or functional assay
row,hAmylin-R funct. EC50,Binder
1,0.034 nM,B1
2,0.118 nM,B2
3,0.096 nM,B3
4,0.07 nM,B4
5,0.405 nM,B5

# Molecular target: T2, human calcitonin receptor
# Test: cell-based or functional assay
Ratio hCT/hAmylin funct.,hCTR funct. EC50,Binder
65.1,2.21 nM,B1
9.7,1.15 nM,B2
60.9,5.85 nM,B3
4.5,0.316 nM,B4
41.6,16.8 nM,B5
